Bridge positions count the residues as written; N and C are the ends. Square brackets hold non-standard residues; d marks the D form. Ends that are not written are not given here. * marks the point of attachment. Oic = O=C(O)[C@@H]1C[C@@H]2CCCC[C@@H]2N1; Cyclobutylacetic = O=C(CC1CCC1)*; Hyp = O=C(O)[C@@H]1C[C@@H](O)CN1; NMeI = CC[C@H](C)[C@H](NC)C(=O)O; tBuAla = CC(C)(C)C[C@H](N)C(=O)O; Pen = CC(C)(S)[C@H](N)C(=O)O; NMeC = CN[C@@H](CS)C(=O)O; Orn = NCCC[C@H](N)C(=O)O; Sar = CNCC(=O)O
T1: recombinant human MASP1 active protease (amino acids 297-699, C-terminal His Tag) (human, UniProt P48740 297-699)
T1 sequence: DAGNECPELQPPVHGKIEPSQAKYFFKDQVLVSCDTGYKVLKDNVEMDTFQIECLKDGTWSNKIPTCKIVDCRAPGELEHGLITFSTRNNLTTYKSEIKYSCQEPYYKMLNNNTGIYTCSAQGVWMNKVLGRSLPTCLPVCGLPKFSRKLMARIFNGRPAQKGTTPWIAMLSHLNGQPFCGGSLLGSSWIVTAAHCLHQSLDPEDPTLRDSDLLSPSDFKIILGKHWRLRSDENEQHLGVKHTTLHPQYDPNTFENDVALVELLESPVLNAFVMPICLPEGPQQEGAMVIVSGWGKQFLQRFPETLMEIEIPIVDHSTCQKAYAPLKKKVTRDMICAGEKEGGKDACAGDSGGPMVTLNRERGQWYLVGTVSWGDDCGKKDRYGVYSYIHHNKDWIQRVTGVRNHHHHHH

B1: Example 377: IC+SRSLP-(Oic)-I-(Pen)+IPQ-NH2 (peptide)
peptide: ICSRSLP[Oic]I[Pen]IPQ-NH2
modifications: disulfide 2-10; N-terminus assumed
SMILES: CC[C@H](C)[C@H](N)C(=O)N[C@H]1CSSC(C)(C)[C@@H](C(=O)N[C@H](C(=O)N2CCC[C@H]2C(=O)N[C@@H](CCC(N)=O)C(N)=O)[C@@H](C)CC)NC(=O)[C@H]([C@@H](C)CC)NC(=O)[C@@H]2C[C@@H]3CCCC[C@@H]3N2C(=O)[C@@H]2CCCN2C(=O)[C@H](CC(C)C)NC(=O)[C@H](CO)NC(=O)[C@H](CCCNC(=N)N)NC(=O)[C@H](CO)NC1=O
B2: Example 378: PPIC+SRS-((tBu)A)-PPI-(Pen)+IP-NH2 (peptide)
peptide: PPICSRS[tBuAla]PPI[Pen]IP-NH2
modifications: disulfide 4-12; N-terminus assumed
SMILES: CC[C@H](C)[C@H](NC(=O)[C@@H]1CCCN1C(=O)[C@@H]1CCCN1)C(=O)N[C@H]1CSSC(C)(C)[C@@H](C(=O)N[C@H](C(=O)N2CCC[C@H]2C(N)=O)[C@@H](C)CC)NC(=O)[C@H]([C@@H](C)CC)NC(=O)[C@@H]2CCCN2C(=O)[C@@H]2CCCN2C(=O)[C@H](CC(C)(C)C)NC(=O)[C@H](CO)NC(=O)[C@H](CCCNC(=N)N)NC(=O)[C@H](CO)NC1=O
B3: Example 382: (Cyclobutylacetic)-IC+SRS-((tBu)A)-PPI-((N-Me)C)+I-NH2 (peptide)
peptide: Cyclobutylacetic-ICSRS[tBuAla]PPI[NMeC]I-NH2
modifications: disulfide 2-10
SMILES: CC[C@H](C)[C@H](NC(=O)[C@@H]1CSSC[C@H](NC(=O)[C@@H](NC(=O)CC2CCC2)[C@@H](C)CC)C(=O)N[C@@H](CO)C(=O)N[C@@H](CCCNC(=N)N)C(=O)N[C@@H](CO)C(=O)N[C@@H](CC(C)(C)C)C(=O)N2CCC[C@H]2C(=O)N2CCC[C@H]2C(=O)N[C@@H]([C@@H](C)CC)C(=O)N1C)C(N)=O
B4: Example 381: ((N-Me)G)-(Orn)-(Orn)-(Orn)-IC+SRS-((tBu)A)-PPI-(Pen)+IP-NH2 (peptide)
peptide: [Sar][Orn][Orn][Orn]ICSRS[tBuAla]PPI[Pen]IP-NH2
modifications: disulfide 6-14; N-terminus assumed
SMILES: CC[C@H](C)[C@H](NC(=O)[C@H](CCCN)NC(=O)[C@H](CCCN)NC(=O)[C@H](CCCN)NC(=O)CNC)C(=O)N[C@H]1CSSC(C)(C)[C@@H](C(=O)N[C@H](C(=O)N2CCC[C@H]2C(N)=O)[C@@H](C)CC)NC(=O)[C@H]([C@@H](C)CC)NC(=O)[C@@H]2CCCN2C(=O)[C@@H]2CCCN2C(=O)[C@H](CC(C)(C)C)NC(=O)[C@H](CO)NC(=O)[C@H](CCCNC(=N)N)NC(=O)[C@H](CO)NC1=O
B5: Example 379: ((N-Me)I)-C+SRS-((tBu)A)-PPI-(Pen)+IP-NH2 (peptide)
peptide: [NMeI]CSRS[tBuAla]PPI[Pen]IP-NH2
modifications: disulfide 2-10; N-terminus assumed
SMILES: CC[C@H](C)[C@H](NC)C(=O)N[C@H]1CSSC(C)(C)[C@@H](C(=O)N[C@H](C(=O)N2CCC[C@H]2C(N)=O)[C@@H](C)CC)NC(=O)[C@H]([C@@H](C)CC)NC(=O)[C@@H]2CCCN2C(=O)[C@@H]2CCCN2C(=O)[C@H](CC(C)(C)C)NC(=O)[C@H](CO)NC(=O)[C@H](CCCNC(=N)N)NC(=O)[C@H](CO)NC1=O
B6: Example 380: GIC+SRSL-(Hyp)-PIC+IPD-OH (peptide)
peptide: GICSRSL[Hyp]PICIPD-OH
modifications: disulfide 3-11; N-terminus assumed
SMILES: CC[C@H](C)[C@H](NC(=O)CN)C(=O)N[C@H]1CSSC[C@@H](C(=O)N[C@H](C(=O)N2CCC[C@H]2C(=O)N[C@@H](CC(=O)O)C(=O)O)[C@@H](C)CC)NC(=O)[C@H]([C@@H](C)CC)NC(=O)[C@@H]2CCCN2C(=O)[C@@H]2C[C@@H](O)CN2C(=O)[C@H](CC(C)C)NC(=O)[C@H](CO)NC(=O)[C@H](CCCNC(=N)N)NC(=O)[C@H](CO)NC1=O

Columns and labels:
[1] = target: T1, recombinant human MASP1 active protease …; experiment: cell-based or functional assay
[2] = target: recombinant human MASP2 active protease (amino acids 297-686, C-terminal His Tag) (human, UniProt O00187 297-686); experiment: cell-based or functional assay
recombinant human MASP2 active protease (amino acids 297-686, C-terminal His Tag), sequence (O00187 other isoform, or with tags, fused parts or gaps limits assumed): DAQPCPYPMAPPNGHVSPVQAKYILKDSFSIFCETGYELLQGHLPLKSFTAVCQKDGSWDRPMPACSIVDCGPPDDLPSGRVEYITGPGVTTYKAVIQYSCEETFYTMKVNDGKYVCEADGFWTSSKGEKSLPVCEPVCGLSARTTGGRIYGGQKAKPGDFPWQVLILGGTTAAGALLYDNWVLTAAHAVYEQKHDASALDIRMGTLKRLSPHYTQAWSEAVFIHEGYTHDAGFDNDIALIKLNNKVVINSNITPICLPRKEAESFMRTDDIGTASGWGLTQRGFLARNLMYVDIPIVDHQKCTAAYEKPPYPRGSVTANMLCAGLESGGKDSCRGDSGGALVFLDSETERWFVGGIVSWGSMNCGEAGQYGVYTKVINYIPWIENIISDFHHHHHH

Row | Binder | human MASP1 IC50 [1] | human MASP2 IC50 [2]
1 | B1 | 37 nM | 810 nM
2 | B2 | 38 nM | 1100 nM
3 | B3 | 40 nM | 41 nM
4 | B4 | 40 nM | 550 nM
5 | B5 | 39 nM | 360 nM
6 | B6 | 40 nM | 810 nM

— US20210246166A1 (Bayer, published 2021)
